Reference: US20040072207

System: raptor (Regulatory Associated Protein of mTOR), endogenous human protein

In the case of “mTOR (mammalian target of rapamycin), endogenous protein of human cell lines”, the “in vitro kinase activity of mTOR towards S6K1 (32P incorporation into GST-S6K1)” value is reported as “the in vitro kinase activity of mTOR towards S6K1 inversely correlated with the amount of raptor recovered with mTOR”.
